This is an account of results in PMC7504393 (International Journal of Molecular Sciences, 2020).

Assay [1] concerns the target T1, recombinant human YKL-40 protein (hYKL-40) (Homo sapiens, UniProt P36222).
T1 construct: human YKL-40 (chitinase-3-like 1, CHI3L1), recombinant protein from Sino Biological; also called chitinase-3-like 1; CHI3L1; source: bought: Sino Biological
Kind of assay: ELISA; hYKL-40 coated at 2 ug/mL (30 uL per well, overnight, 4 °C); serially diluted Fabs, 1 h at 37 °C; detection with HRP-conjugated StrepMAB-Classic; apparent affinity (EC50). The conditions noted are these: both partners purified.

Assay [2] deals with T1, recombinant human YKL-40 protein …. Kind of assay: ELISA; soluble ELISA of serially diluted IgGs on immobilized hYKL-40 surfaces; apparent affinity (EC50). The settings on record: both partners purified.
A further assay deals with T2, recombinant mouse YKL-40 (Mus musculus, UniProt Q61362).
T2 construct: mouse YKL-40 (chitinase-3-like protein 1), recombinant
T2 sequence (Q61362 30-389): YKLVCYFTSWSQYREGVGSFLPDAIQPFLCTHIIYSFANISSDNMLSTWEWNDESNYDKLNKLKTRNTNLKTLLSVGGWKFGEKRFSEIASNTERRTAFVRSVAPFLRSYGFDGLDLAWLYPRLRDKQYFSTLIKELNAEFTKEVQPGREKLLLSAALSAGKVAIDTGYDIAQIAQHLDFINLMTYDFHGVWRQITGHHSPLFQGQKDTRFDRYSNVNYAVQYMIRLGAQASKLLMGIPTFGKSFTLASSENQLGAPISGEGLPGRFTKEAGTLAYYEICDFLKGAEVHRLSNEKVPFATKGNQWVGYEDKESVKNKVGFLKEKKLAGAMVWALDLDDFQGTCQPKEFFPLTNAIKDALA
The experiment in a line: western blot; H1 (IgG) as the probing antibody on recombinant human and mouse YKL-40 (Figure S5). The conditions noted are these: both partners purified.

In assay [3] the target is T1, recombinant human YKL-40 protein …. Kind of assay: BLI; Octet QK384; hYKL-40 amine-coupled to AR2G tips (15 ug/mL, 10 mM sodium acetate pH 5.0); H1 (IgG) 50 nM~0 nM in 2-fold dilutions in PBS with 0.09% Tween 20; 1:1 binding model; apparent KD. The settings on record: both partners purified.
The target of assay [4] is T3, native YKL-40 from murine cells (Mus musculus, UniProt Q61362).
T3 construct: mouse YKL-40 (chitinase-3-like protein 1), endogenous in murine cells; source: endogenous, murine cell lysates (including mouse lung cells)
T3 sequence (Q61362 30-389): as above
The experiment in a line: western blot; H1 (IgG) as the probing antibody on lysates of human and murine cells (Figure S5). The conditions noted are these: one partner purified.

T1 sequence (P36222 22-383): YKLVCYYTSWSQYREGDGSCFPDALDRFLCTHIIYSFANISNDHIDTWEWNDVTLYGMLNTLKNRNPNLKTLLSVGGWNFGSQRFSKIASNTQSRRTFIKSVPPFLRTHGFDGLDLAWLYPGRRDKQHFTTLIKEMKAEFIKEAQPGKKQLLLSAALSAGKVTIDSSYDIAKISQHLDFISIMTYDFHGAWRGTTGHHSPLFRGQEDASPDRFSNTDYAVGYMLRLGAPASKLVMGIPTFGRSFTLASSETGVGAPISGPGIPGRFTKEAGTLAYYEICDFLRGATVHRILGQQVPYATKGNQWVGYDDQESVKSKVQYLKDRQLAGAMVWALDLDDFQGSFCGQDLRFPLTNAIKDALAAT

B1: H1 (Fab), human anti-hYKL-40 Fab (Fab, V domains shown)
VH: EVQLVESGGGLVQPGGSLRLSCAASGFTFSNYAMSWVRQAPGKGLEWVSGISGSGGTTYYADSVKGRFTISRDNSKNTLYLQMNSLRAEDTAVYYCAGVGTFDVWGQGTLVTVSS
VL: DIQMTQSPSSLSASVGDRVTITCRASQTISSWLNWYQQKPGKAPKLLIYAASRLQSGVPSRFSGSGSGTDFTLTISSLQPEDFATYYCQQSYSTPLTFGQGTKVEIK
notes: heavy chain (VH-CH1) of the H1 Fab, from the synthetic library KFab-I (human VH3 framework, randomised CDRs); light chain (VL-CL) of the H1 Fab, from the synthetic library KFab-I (human Vk1 framework, randomised CDRs); it is written on the heavy chain as a surmise; Expression vector pKFAB (in-house); source: E. coli Top10F', periplasmic extract, purified (Strep-Tactin XT)
Regarding B1, the EC50 in assay [1] turned out to be 2.3 nM.

B2: H1 (IgG), human anti-hYKL-40 IgG (antibody, V domains shown)
VH: B1 VH
VL: B1 VL
notes: VH of H1, as in the heavy chain of m2 (PDB 7CJ2); human VH3 framework; human IgG1 heavy-chain constant region, from the heavy-chain vector (pOptiVEC) used for Herceptin expression as IgG1 backbone; VL-CL (Vk1, Ck1) of H1, as the light chain of m2 (PDB 7CJ2); IgG1, kappa; VL and CL were amplified and joined by overlap extension PCR; VH was cloned into the Herceptin IgG1 backbone; also called H1 …
B2: in assay [2], the EC50 amounted to 0.5 nM. The binding result (with recombinant mouse YKL-40; in assay [4]) was “binds” each time. Moreover, the Kd in assay [3] came to 0.05 nM.
